Source: patent US5846764, “Materials and methods relating to proteins that interact with casein kinase I” (ICOS Corporation, dated 1998)
Each block holds one molecule with its values, some of them ahead of it.

Assays:
[1] = target: lexA::HRR25 K→R fusion (pBTM116::HRR25K→R) (E. coli; S. cerevisiae) (UniProt P0A7C2); assay: yeast two-hybrid (lexA bait, GAL4 prey), liquid β-galactosidase assay
[2] = target: lexA::HRR25 fusion (pBTM116::HRR25) (E. coli; S. cerevisiae) (UniProt P0A7C2); assay: as above
[3] = target: lexA::HRR25 non-catalytic domain fragment (pBTM116::Non-catalytic) (E. coli; S. cerevisiae) (UniProt P0A7C2); assay: as above
[4] = target: T1, lexA DNA binding domain alone (pBTM116 vector) (E. coli, UniProt P0A7C2); assay: yeast two-hybrid, liquid β-galactosidase assay
Method: To construct pairwise combinations between pBTM116-based plasmids and pGAD-based plasmids, yeast strains of opposite mating types were replica plated in a crossed pattern on YEPD medium (Bio101) and were allowed to mate for 18 hours. Diploid cells were selected by a second replica plating onto SD-leucine, -tryptophan medium to select for cells that contained both pBTM116-type and pGAD-type plasmids. The isolated diploids were grown in liquid SD-leucine, -tryptophan medium to a cell density of 2×10^7 cells/ml and the level of interaction of the kinase and interacting protein, as determined by beta-galactosidase activity, was determined from cells that were lysed by adding 3 drops of chloroform and 50 µl of 0.1 % SDS to 2×10^6 cells suspended in 0.1 ml of Z buffer and subsequently adding 0.2 ml of the chromogenic substrate o-nitrophenyl-β-D-galactoside. β-galactosidase assays were terminated by adding 0.5 ml of 1M Na_2CO_3 and activity was measured by reading absorbance at 420 nm using a Milton Roy spectrophotometer (Rochester, N.Y.). In this assay, the degree of protein/protein interaction is directly proportional to the level of β-galactosidase activity. […] Values were normalized to vector alone controls.

[5] = target: lexA::HRR25 K→R fusion (pBTM116::HRR25K→R) (E. coli; S. cerevisiae) (UniProt P0A7C2); assay: yeast two-hybrid (lexA bait, GAL4 activation domain prey), liquid β-galactosidase assay, normalized to vector alone
[6] = target: lexA::HRR25 catalytic domain fragment (pBTM116::Kinase domain) (E. coli; S. cerevisiae) (UniProt P0A7C2); assay: as above
Sequence of lexA::HRR25 catalytic domain fragment (pBTM116::Kinase domain) (E. coli; S. cerevisiae) (P0A7C2 1-202, tags or fused parts left off): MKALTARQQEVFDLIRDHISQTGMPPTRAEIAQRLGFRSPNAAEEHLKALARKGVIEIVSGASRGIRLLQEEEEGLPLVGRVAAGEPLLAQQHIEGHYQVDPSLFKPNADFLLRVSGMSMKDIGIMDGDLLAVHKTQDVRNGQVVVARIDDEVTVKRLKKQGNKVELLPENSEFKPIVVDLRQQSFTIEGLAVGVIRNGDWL

[7] = target: lexA::HRR25 fusion (pBTM116::HRR25) (E. coli; S. cerevisiae) (UniProt P0A7C2); assay: as above
[8] = target: lexA::HRR25 non-catalytic domain fragment (pBTM116::Non-catalytic) (E. coli; S. cerevisiae) (UniProt P0A7C2); assay: as above
[9] = target: lexA::NUF1 fusion (pBTM116::NUF1) (E. coli; S. cerevisiae) (UniProt P0A7C2); assay: as above
[10] = target: T1, lexA DNA binding domain alone (pBTM116 …); assay: as above
[11] = target: lexA::HRR25 non-catalytic domain fragment (pBTM116::Non-catalytic) (E. coli; S. cerevisiae, UniProt P0A7C2); assay: as above

Molecule: GAL4::CIN8 fusion (pGAD::CIN8) (from UniProt P27895)
units of β-galactosidase activity [1]: 28 units
units of β-galactosidase activity [2]: 5 units
units of β-galactosidase activity [3]: < 0.1 units

B2: GAL4 activation domain::TIH3 library clone (pGAD::TIH3) (other)
chain: IKPMVESNCKNGQISATKDLVKLVEEFVEKYVELSKEKADTLKPLPSVTSFGSPRKVAAPELSMVQPESKPEAEAEISEIGSDRWRFNWVNIIILVLLVLNLLYLMKLNKKMDKLTNLMTHKDEVVAHATLLDIPAQVQWSRPRRGDVL
binding result [4]: no binding (tested: <5)
relative β-galactosidase activity [5]: 30
relative β-galactosidase activity [6]: 130
relative β-galactosidase activity [7]: 100
relative β-galactosidase activity [8]: < 5
relative β-galactosidase activity [9]: 10
relative β-galactosidase activity [10]: < 5

B3: GAL4 activation domain::TIH4 library clone (pGAD::TIH4) (protein)
chain: RRMISELKNRSNIGEPLTKSSNESTYKDIKATGNDGDPNLALMRAENRVLKYKLENCEKLLDKDVVDLQDSEIMEIVEMLPFEVGTLLETKFQGLESQIRQYRKYTQKLEDKIMALEKSGHTAMSLTGCDGTEVIELQKMLERKDKMIEALQSAKRLRDRALKPLINTQQSPHPVVDNDK
units of β-galactosidase activity [1]: 66 units
units of β-galactosidase activity [2]: 70 units

B4: GAL4 activation domain::TIH2 library clone (pGAD::TIH2) (other)
chain: RSSSNLSLDSLSKMSGSGNNNTSNNQLFSTLMNGINANSMMNSPMNNTINNNSSNNNNSGNIILNQPSLSAQHTSSSLYQTNVNNQAQMSTERFYAPLPSTSTLPLPPQQLDFNDPDTLEIYSQLLLFKDREKYYYELAYPMGISASHKRIINVLCSYLGLVEVYDPRFIIIRRKILDHANLQSHLQQQGQMTSAHPLQPNSTGGSMNRSQSYTSLLQAHAAAAANSISNQAVNNSSNSNTINSNNGNGNNVIINNNSASSTPKISSQGQFSMQPTLTSPKMNIHHSSQYNSADQPQQPQPQTQQNVQSAAQQQQSFLRQQATLTPSSRIPSGYSANHYQINSVNPLLRNSQISPPNSQIPINSQTLSQAQPPAQSQTQQRVPVAYQNASLSSQQLYNLNGPSSANSQSQLLPQHTNGSVHSNFSYQSYHDESMLSAHNLNSADLIYKSLSHSGLDDGLEQGLNRSLSGLDLQNQNKKNLW
binding result [4]: no binding (tested: <5)
relative β-galactosidase activity [5]: 150
relative β-galactosidase activity [6]: 160
relative β-galactosidase activity [7]: 650
relative β-galactosidase activity [9]: < 5
relative β-galactosidase activity [11]: < 5
relative β-galactosidase activity [10]: < 5

Results, then the molecule that gave them:

units of β-galactosidase activity [1]: 16 units
units of β-galactosidase activity [2]: 10 units
units of β-galactosidase activity [3]: < 0.1 units
Molecule: GAL4::KIP2 fusion (pGAD::KIP2) (from UniProt P28743)

units of β-galactosidase activity [1]: 75 units
units of β-galactosidase activity [2]: 15 units
units of β-galactosidase activity [3]: 60 units
Molecule: GAL4::KAR3 fusion (pGAD::KAR3) (from UniProt P17119)

units of β-galactosidase activity [1]: 55 units
units of β-galactosidase activity [2]: 16 units
units of β-galactosidase activity [3]: 70 units
Molecule: GAL4::KIP1 fusion (pGAD::KIP1) (from UniProt P28742)

binding result [4]: no binding (tested: <5)
relative β-galactosidase activity [5]: 100
relative β-galactosidase activity [6]: 820
relative β-galactosidase activity [7]: 850
relative β-galactosidase activity [8]: < 5
relative β-galactosidase activity [9]: < 5
relative β-galactosidase activity [10]: < 5
B1: GAL4 activation domain::TIH1 library clone (pGAD::TIH1) (other)
chain: DQLKSYAEEQLKLLLGITKEEQIDPGRELLNMLHTAVQANSNNNAVSNGQVPSSQELQHLKEQSGEHNQQKDQQSSFSSQQQPSIFPSLSEPFANNKNVIPPTMPMANVFMSNPQLFATMNGQPFAPFPFMLPLTNNSNSANPIPTPVPPNFNAPPNPMAFGVPNMHNLSGPAVSQPFSLPPAPLPRDSGYSSSSPGQLLDILNSKKPDSNVQSSKKPKLKILQRGTDLNSLKQNNNDETAHSNSQALLDLLKKPTSSQKIHASKPDTSFLPNDSVSGIQDAEYEDFESSSDEEVETARDERNSLNVDIGVNVMPSEKDSRRSQKEKPRNDASKTNLNASAESNSVEWGAG
